Assay results taken from patent publication US20240294650A1 (Alector, published 2024).

T1: Full Axl (ECD domain of human Axl) (human, UniProt P30530 26-451)
T1 construct: also called human Axl ECD
T1 sequence: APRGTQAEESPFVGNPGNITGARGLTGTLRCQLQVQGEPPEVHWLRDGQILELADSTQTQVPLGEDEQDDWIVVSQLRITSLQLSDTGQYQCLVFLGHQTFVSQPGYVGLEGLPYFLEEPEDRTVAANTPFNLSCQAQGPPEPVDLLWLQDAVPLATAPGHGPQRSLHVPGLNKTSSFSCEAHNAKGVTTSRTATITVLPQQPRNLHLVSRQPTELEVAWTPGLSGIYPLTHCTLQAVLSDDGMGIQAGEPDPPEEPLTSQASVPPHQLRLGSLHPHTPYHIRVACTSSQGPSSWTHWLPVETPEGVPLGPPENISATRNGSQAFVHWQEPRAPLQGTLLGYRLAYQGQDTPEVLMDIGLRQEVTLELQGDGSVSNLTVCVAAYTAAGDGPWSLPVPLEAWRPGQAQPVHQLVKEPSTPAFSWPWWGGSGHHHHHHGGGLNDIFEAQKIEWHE

T2: recombinant human MerTK extracellular domain (human, UniProt Q12866 21-505)
T2 construct: also called human MerTK ECD; not shown: polyHis or TEVS/Thrombin/murine IgG2a-Fc tag
T2 sequence: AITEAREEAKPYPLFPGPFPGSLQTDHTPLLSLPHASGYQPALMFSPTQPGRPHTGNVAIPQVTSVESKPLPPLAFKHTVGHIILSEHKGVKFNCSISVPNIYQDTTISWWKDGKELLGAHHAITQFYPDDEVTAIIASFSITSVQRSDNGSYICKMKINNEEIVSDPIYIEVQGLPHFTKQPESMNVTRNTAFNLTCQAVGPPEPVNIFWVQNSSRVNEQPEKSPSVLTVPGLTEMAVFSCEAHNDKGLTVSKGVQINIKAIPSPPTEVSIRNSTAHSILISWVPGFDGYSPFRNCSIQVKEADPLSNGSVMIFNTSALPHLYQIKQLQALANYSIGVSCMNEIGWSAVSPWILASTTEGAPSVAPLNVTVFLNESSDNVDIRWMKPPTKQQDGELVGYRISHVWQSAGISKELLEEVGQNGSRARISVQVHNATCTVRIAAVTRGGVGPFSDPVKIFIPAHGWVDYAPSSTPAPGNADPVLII


How the values were obtained:
[1] = target: T1, Full Axl (ECD domain of human Axl); experiment: SPR (data not shown)
Procedure: Binding of anti-MerTK antibodies of the present disclosure to these domain-swapped chimera or deletion mutants was tested by Surface Plasmon Resonance (SPR) using Carterra LSA. Purified anti-MerTK antibodies were immobilized in duplicate on a HC30M chip (Carterra) by amine coupling, following the manufacturer's instructions (described previously).
Supernatants containing the constructs were diluted 1:1 with running buffer containing 0.5 mg/mL BSA (HBS-TE, Carterra; BSA, Sigma) and injected over the immobilized antibodies. The surface was regenerated with 10 mM Glycine pH2.0 after each construct injection. Sensorgrams were analyzed using Carterra Epitope software to identify patterns of construct binding. Loss of binding to MerTK constructs with domains deleted or swapped in from Axl and/or gain of binding to Axl constructs with MerTK domains swapped in were evaluated. Data from these studies were used to construct a domain binding map for anti-MerTK antibodies and their binding to various domains of human MerTK.

[2] = target: T2, recombinant human MerTK extracellular …; experiment: SPR Carterra LSA, Ab immobilised
Procedure: Binding kinetics of anti-MerTK IgG1 antibodies of the present disclosure to human, cyno, and murine MerTK were evaluated using a Carterra LSA instrument (Carterra, Salt Lake City, UT). […] A HC200M sensor chip (Carterra) was activated using the single channel flow cell with a 7-minute injection of a 1:1:1 mixture of 100 mM MES pH 5.5, 100 mM sulfo-NHS, 400 mM EDC (all reconstituted in MES pH 5.5; 100 μl of each mixed in vial immediately before running assay). After switching to the multi-channel array flow cell, the antibodies were injected over the activated chip in three 96-spot arrays for 10 minutes each. The remaining unconjugated active groups on the chip were then blocked by injecting 1M Ethanolamine pH 8.5 (Carterra) for 7 minutes using the single channel flow cell. The resulting sensor chip contained three spots for each antibody, at three different densities. Two independent experiments were performed as follows, resulting in an N of between one and six determinations for each antibody. Spots that yielded less than 25 RU of analyte binding were excluded from further analysis.
After priming with running buffer (HBS-TE, Carterra) with 0.5 mg/ml BSA (Sigma), the immobilized anti-MerTK antibodies were tested for their ability to bind to several forms of recombinant MerTK extracellular domain, including human, cynomolgus, and mouse orthologs as described above. Estimates of affinity were generated by injecting each analyte over the entire antibody array using the single channel flow cell. MerTK analytes were diluted with running buffer, in a series of six, three-fold serial dilutions starting from 1 μM for human and cynomolgus MerTK, and 600 nM for mouse MerTK. Analytes were injected for 5 minutes, and dissociation was followed for 10 minutes. After each analyte injection, antibodies were regenerated with either Protein A/G Elution Buffer (Thermo) with 1M NaCl (Teknova), or with 10 mM Glycine pH 2.5. Three buffer blanks were run between each series (one species per series). Data were processed and analyzed using NextGenKIT high-throughput kinetics analysis software (Carterra).

| binding result [1] | Kd [2] [nM] | Binder |
| --- | --- | --- |
| no binding | 64 | MTK-213 (antibody, human IgG1, V domains shown) VH: QVQLQQPGAELVKPGASVKMSCKASGYTFTSYWITWVKQRPGQGHEWIGEIYPGIGSTNYNEKFKSKATLTVDTSSRTAYMQLSSLTSEDSAVYFCARGAYTKYYFDYWGQGTTLTVSS VL: DIVMTQSHKFMSTSVGDRVSITCKASQDVGDAVAWYQQKPGQTPKLLIYWASTRHTGVPDRFTGSGSGTDFTLTISNVQSEDLADYFCQQYSSYLMYTFGGGTKLEIK |
| no binding | 440 | MTK-219 (antibody, human IgG1, V domains shown) VH: QVQLQQSGADLMKPGASVKLSCKATGNTFTGYWIEWVKQRPGHGLEWIGEILTGSGSTNYNERFKGKATFTADTSSNTAYMQLSSLTTEDSAIYYCAGSYFTNSWFPYWGQGSLVTVSA VL: DIVLTQSPASLAVSLGQRATISCRASESVDSYGNSFMHWYQQKPGQPPKLLIYRAYTLESGIPARFSGSGSRTDFTLTINPVEADDVATYYCQQSNEDPRTFGGGTKLEIK |
| no binding | 130 | MTK-222 (antibody, human IgG1, V domains shown) VH: QVQLQQSGADLMKPGASVKLSCKATGYTFTGYWIEWVKQRPGHGLEWIGEILTGSGSSNYNEKFKGKATFTADSSSNTAFMQLSSLTTEDSAIYYCAGSYYSNSWFPYWGQGSLVTVSA VL: DIVLTQSPVSLAVSLGQRATISCRASESVDSYGSSFMHWYQQKPGQPPKLLIYRASSLESGIPARFSGSGSRTDFTLTINPVETDDVATYYCQQSNEDPRTFGGGTKLEIK |
| no binding | 18 | MTK-229 (antibody, human IgG1, V domains shown) VH: QVQLQQSGPELVKPGASVKISCKASGYEFSRSWMNWVKQRPGKGLEWIGRIYPGDGDTNYKGKLKGQATLTADKSSSTAYMQLSSLTFEDSAVYFCARGGGYYYDSRYEGFVYWGQGTVVTVSA VL: QIVLTQSPAIMSASPGEEVTMTCSASSSVSYMHWYQQKSGTSPKRWIYDTSKLASGVSGRFSGSGSGTSYSLTISSMEAEDAATYYCQQWSSNPPITFGAGTKLELK |
| no binding | 29 | MTK-221 (antibody, human IgG1, V domains shown) VH: QVTLKESGPGMLQSSQTLSLTCSFSGFSLSTSGMGVSWIRQPSGKGLEWLAHIYWDDDKRYNTSLQSRLTISKDTSRNQVFLKITSVDTADTATYFCGRLGAYSAFPYYFDYWGQGTTLTVSS VL: DIQMTQSPSSLSASLGGKVTITCKASQDIHKHIAWYQHKPGKGPRLLIHYTSTLQPGIPSRFSGSGSGRDYSFSISNLEPEDLATYYCLQYDNLWTFGGGTKLEIK |
| no binding | 150 | MTK-220 (antibody, V domains shown) VH: EVQLVESGGGLVKPGGSLKLSCAASGFTFSDYGMHWVRQAPEKGLEWVAFISGGSGTIYYEDTVKGRFTISRDNAKNTLFLQMTSLRSEDTAMYYCTRGGNYFDYWGQGTTLTVSS VL: NIMLTQSPSSLAVSAGEKVTMTCKSSQSVLYSSNQKNYLAWYQQKPGQSPKLLIYWASTRESGVPDRFTGSGSGTDFTLTISNVQAEDLAVYYCHQYFSSWTFGGGTKLEIK |
| no binding | 240 | MTK-204 (antibody, human IgG1, V domains shown) VH: EVQLVESGGGLVKPGGSLKLSCAASGFTFSDYGMHWVRQAPEKGLEWVAYISSGTSTIYYEDTVKGRFTISRDNAKNTLFLQMTSLRSEDTAMYYCARGGLLFDYWGQGTTLTVSS VL: NIMMTQSPSSLAVSAGEKVTMSCKSSQSVLYSSNQKNYLAWYQQKPGQSPKLLIQWASTRESGVPDRFTGSGSETDFTLTIRSVQAEDLAVYYCHQYFSSWTFGGGTKLEIK |
| no binding | 33 | MTK-202 (antibody, human IgG1, V domains shown) VH: EVQLVESGGGLVKPGGSLKLSCAASGFTFSDFGMHWVRQVPEKGLEWVAFISGGSNTIYYTDTVKGRFTISRDNAKNTLFLQMTSLRSEDTAMYYCVRNGNSFAYWGQGTLVTVSA VL: NIMMTQSPSSLAVSAGEKVTMNCKSSQSVLYSSNQKNYLAWYQQKPGQSPKLLIYWASTRESGVPDRFTGSGSGTDFTLTISNIQAEDLAIYYCHQYFFSWTFGGGTKLEIK |
| no binding | 75 | MTK-223 (antibody, human IgG1, V domains shown) VH: DVQLQESGPGLVKPSQSLSLTCSVTGYSITSGYYWNWIRQFPGNKLEWMGYISYDGTNNYNPSLKNRISITRDTSENQFFLKLNSVTTEDTATYFCVRGAGYWGQGTTLTVSS VL: not shown |
| no binding | 26 | MTK-231 (antibody, human IgG1, V domains shown) VH: DVQLQESGPGLVKPSQSLSLTCSVTGYSITSGYYWNWIRQFPGNKLEWMGYISYDGTYNYHPSLKNRISITRDTSKNQFFLTLNSVTTEDTATFYCTRGGGYWGQGTSVTVSS VL: DVVMTQTPLSLPVSLGDQASISCRSSQSLVHSDGNTYLHWYLQKPGQSPKLLIYKVSNRFSGVPDRFSGSGSGTDFTLKISRLEAEDLGIYFCSQTTHIPLTFGSGTKLEIK |
| no binding | 150 | MTK-206 (antibody, human IgG1, V domains shown) VH: QVQLQQSGAELARPGASVKMSCKASGYTFTSYTMHWVKQRPGQGLEWIGYINPSSGYIKNSQKFKDKATLTADKSSSTAYMQLSSLTSEDSAVYYCARTVYGYYGSSPDYWGQGTTLTVSS VL: DIQMTQSPSSLSASLGERVSLTCRASQDIGSNLNWLQQEPDGTIKRLIYATSSLESGVPKRFSGSRSGSDYSLTISSLESEDFVDYYCLQYDSSPWTFGGGTKLEIK |
| no binding | 31 | MTK-210 (antibody, human IgG1, V domains shown) VH: QVQLQQSGPELVKPGASVKISCKASDYEFSRSWMNWVKQRPGKGLEWIGRIYPGDGDTNYNGKFKGKATLTADKSSNTAYMQLNSLTSEDSAVYFCARKGGYYYSISNYFDYWGQGTTLTVSS VL: QIVLTQSPAIMSASPGVKVTMTCSASSSVSYMHWYQQKPGSSPRLLIYDTSNLASGVPVRFSGSGSGTSYSLTISRMEAEDAATYYCQQWSSYPPYTFGGGTKLEIK |
| no binding | 52 | MTK-225 (antibody, human IgG1, V domains shown) VH: EVQLQQSGPELVKPGASVKIFCKASGYTFTAYNMDWVKQSHGKSLEWIGDINPNNGGTIYNQKFKGKATLTVDKSSSTAYMELRSLTSEDTAVYYCARRRRYGNTYYWYFDVWGTGTTVTVSS VL: DIQMTQSPASLSVSVGETVTITCRASENIYSSLAWYQQKQGKSPQLLVYAATNLADGVPSRFSGSGSGTQFYLKINGLQSEDFGSYYCQHFWGTSYTFGGGTKLEIK |
| no binding | 82 | MTK-212 (antibody, human IgG1, V domains shown) VH: QVQLQQSGPELVKPGASVKISCKASGYAFSSSWVNWVKQRPGKGLEWIGRIYPGDGDSNYNGNFKGKATLTADKSSNTAYLQLSSLTSEDSAVYFCARKSHFIYYTLDYWGQGTPVTVSS VL: DIVMTQSHKFKSTSVGDRVSIACKASQDVGTSVAWYQQKPGKSPKLLIYWASSRHTGVPDRFTGSGSGTDFTLTISNVQSEDLTDYFCQQYSTYPYTFGGGTKLEIK |
